In this experiment the target is T1, BAKΔTM (human, UniProt Q16611 1-186).
T1 chain: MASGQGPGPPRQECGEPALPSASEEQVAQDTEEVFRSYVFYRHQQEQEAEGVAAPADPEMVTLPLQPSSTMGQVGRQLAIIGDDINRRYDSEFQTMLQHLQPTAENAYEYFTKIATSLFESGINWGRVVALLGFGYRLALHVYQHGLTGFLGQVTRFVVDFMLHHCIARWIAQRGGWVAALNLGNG
Nature of the experiment: SPR.

One may read the Kd as a measure of binding affinity in units of concentration. A high value points to lower affinity.

In turn, MEGSDALALRLACIGDEMDVSLRAPR [BIK BH3 peptide] returned a Kd of over 10 µM.

For the molecule NLWAAQRYGRELRRMSDEFVDSFKK [BAD BH3 peptide], the Kd is over 10 µM.

Source of the values: paper PMC7335050 (2020).
